{"source": "patent US8889621B2", "about": "“Inhibiting binding of FGF23 to the binary FGFR-Klotho complex for the treatment of hypophosphatemia” (New York University, priority 2009, dated 2014)", "target": "T1, FGFR1c-Klotho complex (UniProt O35082+P11362)", "T1 construct": "The ectodomain of murine Klotho (A35 to K982) was purified from culture media; FLAG (C); made in house; host or cells: E. coli (FGFR1c); HEK293 conditioned media (Klotho ectodomain)", "T1 sequence (P11362 142-365)": "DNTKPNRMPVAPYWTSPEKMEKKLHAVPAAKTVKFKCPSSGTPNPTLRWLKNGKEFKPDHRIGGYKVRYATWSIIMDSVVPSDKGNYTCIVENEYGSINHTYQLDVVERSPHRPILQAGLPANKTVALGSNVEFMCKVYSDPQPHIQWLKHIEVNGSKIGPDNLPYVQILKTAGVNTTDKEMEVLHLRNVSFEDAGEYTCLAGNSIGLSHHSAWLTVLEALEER", "T1 sequence (O35082 35-982)": "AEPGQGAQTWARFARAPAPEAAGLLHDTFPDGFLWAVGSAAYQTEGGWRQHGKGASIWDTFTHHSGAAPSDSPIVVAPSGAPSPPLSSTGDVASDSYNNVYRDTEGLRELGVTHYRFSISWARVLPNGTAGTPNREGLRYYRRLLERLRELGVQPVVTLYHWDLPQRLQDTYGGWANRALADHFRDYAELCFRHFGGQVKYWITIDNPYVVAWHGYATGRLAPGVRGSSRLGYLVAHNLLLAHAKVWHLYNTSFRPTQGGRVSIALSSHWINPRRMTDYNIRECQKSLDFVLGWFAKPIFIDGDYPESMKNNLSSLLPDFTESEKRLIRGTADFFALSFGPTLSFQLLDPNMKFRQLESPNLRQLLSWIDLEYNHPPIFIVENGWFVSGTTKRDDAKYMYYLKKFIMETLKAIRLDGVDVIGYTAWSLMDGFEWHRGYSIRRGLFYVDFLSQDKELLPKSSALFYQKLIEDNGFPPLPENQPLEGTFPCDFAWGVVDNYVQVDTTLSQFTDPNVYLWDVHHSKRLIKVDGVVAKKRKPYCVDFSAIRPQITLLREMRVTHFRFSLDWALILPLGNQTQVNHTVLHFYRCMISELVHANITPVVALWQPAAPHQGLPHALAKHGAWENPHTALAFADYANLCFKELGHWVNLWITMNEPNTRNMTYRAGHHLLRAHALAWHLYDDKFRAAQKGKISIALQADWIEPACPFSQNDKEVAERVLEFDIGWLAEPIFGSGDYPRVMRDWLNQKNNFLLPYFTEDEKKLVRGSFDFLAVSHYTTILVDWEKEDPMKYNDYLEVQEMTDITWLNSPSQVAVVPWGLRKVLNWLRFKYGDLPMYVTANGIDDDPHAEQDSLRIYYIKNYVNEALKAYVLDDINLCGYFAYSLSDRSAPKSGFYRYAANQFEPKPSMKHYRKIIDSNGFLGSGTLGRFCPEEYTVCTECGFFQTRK", "assay": "Size-exclusion chromatography of ternary complex formation", "format": "binding, human FGFR1c, murine Klotho", "conditions": "1.0 M NaCl, pH7.5", "method": "Size-exclusion chromatography may also be used to determine that an agent specifically binds the binary FGFR-Klotho complex. One aspect of the present invention utilizes size-exclusion chromatography. The size-exclusion chromatography experiments were performed on a HiLoad™ 16/60 Superdex™ 200 prep grade column. Because of poor solubility of FGF23 proteins and FGFR1c ectodomain in low salt buffer, the experiments were carried out with 25 mM HEPES-NaOH buffer, pH7.5, containing 1.0 M NaCl. Sample injection volume was 0.3 to 1.0 ml, and the flow rate was 1.0 ml min^−1. Protein retention times were determined by absorbance at 280 nm. The column was calibrated with ferritin (440 kDa), immunoglobulin G (150 kDa), albumin (69.3 kDa), ovalbumin (44.3 kDa), and carbonic anhydrase (28.8 kDa). The void volume was determined using blue dextran 2,000. […]\nSize-exclusion chromatography experiments were performed on a HiLoad™ 16/60 Superdex™ 200 prep grade column (GE Healthcare) mounted on an ÄKTApurifier (GE Healthcare). […] Protein retention times were determined by absorbance at 280 nm. […] The void volume was determined using blue dextran 2,000. […]"}
{"molecule": "FGF23^28-251: human FGF23 (A28 to I251), bioactive full-length ligand expressed in E. coli (protein, listed as Homo sapiens) ASPLLGSSWGGLIHLYTATARNSYHLQIHKNGHVDGAPHQTIYSALMIRSEDAGFVVITGVMSRRYLCMDFRGNIFGSHYFDPENCRFQHQTLENGYDVYHSPQYHFLVSLGRAKRAFLPGMNPPPYSQFLSRRNEIPLIHFNTPIPRRHTRSAEDDSERDPLNVLKPRARMTPAPASCSQELPSAEDNSPMASDPLGVVRGGRVNTHAGGTGPEGCRPFAKFI", "values": [{"measurement": "co-elution with the FGFR1c-Klotho complex", "result": "co-eluted with the FGFR1c-Klotho complex"}]}
